Data from publication PMC7772510.
Numbering of substitutions follows the chain as printed. Names and notes keep the numbering of the source.

B1: GST-αX I-domain (domain or fragment)
chain: RQEQDIVFLIDGSGSISSRNFATMMNFVRAVISQFQRPSTQFSLMQFSNKFQTHFTFEEFRRSSNPLSLLASVHQLQGFTYTATAIQNVVHRLFHASYGARRDAAKILIVITDGKKEGDSLDYKDVIPMADAAGIIRYAIGVGLAFQNRNSWKELNDIASKPSQEHIFKVEDFDALKDIQNQLKEKIFAIEG
B2: GST-αX I-domain D249M (domain or fragment)
chain: B1 chain with D103M
B3: GST-αX I-domain K242A/K243A (domain or fragment)
chain: B1 chain with K115A, K116A
B4: GST-αX I-domain K243S/E244H (domain or fragment)
chain: B1 chain with K116S, E117H

What was measured:
complement fragment iC3b [1] = biological target: complement fragment iC3b (UniProt P01024); experiment: ELISA
complement fragment iC3b [2] = biological target: complement fragment iC3b (UniProt P01024); experiment: SPR

Binder | Kd (complement fragment iC3b [1]) [nM] | Kd (complement fragment iC3b [2]) [nM]
B1 | 1000 | 1060
B2 |  | 490
B3 |  | 2890
B4 |  | 560
